Paper PMC3847324, “Jun dimerization protein 2 is a critical component of the Nrf2/MafK complex regulating the response to ROS homeostasis”

What was measured:
[1] = target: IVT-Nrf2;IVT-JDP2;IVT-MafK (;mouse;rat, UniProt Q60795;P97875;Q8K4B3 1-597;1-163;1-156, ||); experiment: EMSA; large complex with higher DNA-binding activity; EMSA: 5 ug GST fusion or 10 ng IVT protein, 25 C 30 min; 5% native PAGE in 0.5x TBE at 4 C; binding buffer, salt and pH not given; details: tags: ;;, label: 32P 5' end (T4 kinase) as probe, blunt
IVT-Nrf2;IVT-JDP2 = target: T1, IVT-Nrf2;IVT-JDP2 (;mouse, UniProt Q60795;P97875 1-597;1-163, |); experiment: EMSA; EMSA: 5 ug GST fusion or 10 ng IVT protein, 25 C 30 min; 5% native PAGE in 0.5x TBE at 4 C; binding buffer, salt and pH not given; details: protein: ivt;ivt; tags: ;; copies: 1;1; label: 32P 5' end (T4 kinase) as probe; blunt
T1 sequence 1: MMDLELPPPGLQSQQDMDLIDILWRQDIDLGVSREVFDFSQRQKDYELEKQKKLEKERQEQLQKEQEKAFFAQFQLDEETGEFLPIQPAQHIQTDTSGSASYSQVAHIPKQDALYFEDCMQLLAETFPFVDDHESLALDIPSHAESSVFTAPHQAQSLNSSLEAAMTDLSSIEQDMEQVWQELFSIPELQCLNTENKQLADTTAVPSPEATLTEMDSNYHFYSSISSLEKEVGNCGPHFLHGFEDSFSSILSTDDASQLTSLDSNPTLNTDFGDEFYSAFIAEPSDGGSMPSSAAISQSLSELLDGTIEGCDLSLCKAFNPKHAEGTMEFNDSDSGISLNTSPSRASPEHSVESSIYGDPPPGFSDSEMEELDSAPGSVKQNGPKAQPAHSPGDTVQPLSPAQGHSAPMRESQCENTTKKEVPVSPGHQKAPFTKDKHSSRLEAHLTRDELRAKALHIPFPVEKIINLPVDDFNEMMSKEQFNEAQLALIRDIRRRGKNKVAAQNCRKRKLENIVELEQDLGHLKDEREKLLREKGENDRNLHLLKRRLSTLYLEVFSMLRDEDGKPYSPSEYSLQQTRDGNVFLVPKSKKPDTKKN
T1 sequence 2: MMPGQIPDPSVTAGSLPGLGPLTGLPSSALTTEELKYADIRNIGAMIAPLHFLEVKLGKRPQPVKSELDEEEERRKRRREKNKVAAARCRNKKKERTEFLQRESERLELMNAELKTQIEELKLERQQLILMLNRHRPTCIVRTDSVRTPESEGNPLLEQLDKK

B1: human NQO1-ARE WT (dsDNA)
DNA 1: CAGTCACAGTGACTCAGCAGAATCT
DNA 2: AGATTCTGCTGAGTCACTGTGACTG
- binding result [1]: binds
- binding result (IVT-Nrf2;IVT-JDP2): binds
